Target: T1, soluble human TLR3 extracellular domain (human, UniProt O15455 24-704)
T1 construct: extracellular domain; Coated on the ELISA plate; also called hTLR3; extracellular domain of human TLR3
Assay: ELISA, soluble human TLR3 extracellular domain coated on plate, antibody titrated, anti-mouse IgG-HRP detection
Protocol: All 16 mAbs were assessed for binding to the extracellular domain of human TLR3 using an ELISA format as compared to the parental murine mAb C1068. Briefly, soluble human TLR3 extracellular domain was coated into the wells of a 96 well plate and candidate mAbs were incubated at various concentrations (10-3 to 103 ng/ml) and bound antibody was detected with rabbit anti-mouse IgG-HRP for murine IgG1 isotypes (Zymed, South San Francisco, Calif.) or HRP-labeled anti-human IgG (Jackson 109-036-088) for human IgG4 isotypes. $EC50$ values were determined and the screening results are shown in FIG. 9 and Table 2 below.

B1: murine anti-TLR3 mAb C1068 (antibody, V domains shown)
VH: QVQLQQPGAELVQPGTSVRLSCKASGYIFTTYWIHWVKQRPGQGLEWIGEINPNNGRINYNEKFKTKATLTVDKSSSTAYMQLSSLTSEDSAVYYCTRVGVMITTFPYWGQGTLVTVSA
VL: DIQMTQSPASLSASVGETVTITCRASGNIHNYLAWYQQKQGKSPQLLVYNAKTLADGVPSRFSGSESGTQYSLKINSLQPEDFGSYYCQHFWSTPFTFGSGTKLELK
notes: The ELISA text implies a murine IgG1 isotype (detected with anti-mouse IgG-HRP for murine IgG1 isotypes); also called parental murine mAb C1068
EC50: 8 ng/mL
